Results on four molecules are retold here after patent publication US20250313631A1 (HUMMINGBIRD BIOSCIENCE PTE, published 2025).

Substitutions are numbered along the chain they refer to.

In test [1] the target is T1, recombinant rat VISTA (His-tagged) (rat, UniProt A0ABK0L5H3 33-192).
T1 sequence: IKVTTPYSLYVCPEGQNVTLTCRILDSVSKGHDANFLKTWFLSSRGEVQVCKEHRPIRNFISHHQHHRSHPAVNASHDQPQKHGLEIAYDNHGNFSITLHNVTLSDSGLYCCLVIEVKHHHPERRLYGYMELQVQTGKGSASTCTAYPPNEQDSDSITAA
Nature of the test: ELISA, plate coated with rat VISTA. (In general: In an ELISA, binding on a coated surface is turned into a signal by an enzyme label.)

Test [2] concerns the target T2, recombinant cynomolgus macaque VISTA (His-tagged) (cynomolgus macaque, UniProt A0A7N9IB00 33-194).
T2 construct: also called cyno VISTA; cynomolgus monkey VISTA
Nature of the test: ELISA, plate coated with cyno VISTA.

Test [3] has as its target T3, recombinant human VISTA (His-tagged) (human, UniProt Q9H7M9 33-194).
T3 construct: bought soluble protein (Sino Biological); also called hVISTA; human VISTA polypeptide
Nature of the test: ELISA, plate coated with human VISTA.

The target in test [4] is T4, recombinant mouse VISTA (His-tagged) (mouse, UniProt Q9D659 33-191).
T4 construct: also called murine VISTA; mVISTA
T4 sequence (looked up): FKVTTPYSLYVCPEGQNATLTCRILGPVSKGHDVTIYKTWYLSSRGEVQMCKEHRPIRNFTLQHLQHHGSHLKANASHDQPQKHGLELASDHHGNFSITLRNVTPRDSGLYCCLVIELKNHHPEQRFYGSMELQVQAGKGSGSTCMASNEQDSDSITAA
Nature of the test: ELISA, plate coated with mouse VISTA.

For test [5], the target named is T3, recombinant human VISTA (His-tagged). Nature of the test: BLI (Octet), 1:1 global fit, human VISTA captured. (In general: BLI is a label-free optical method that tracks binding on a fibre tip over time.)
Experimental: (§1) Finally, the biosensors were incubated for 120 sec in PBS pH 7.2 to obtain the dissociation curves. Kinetic and affinity constants were calculated by global fitting of the association and dissociation data to a 1:1 binding model.
Test [6] deals with T4, recombinant mouse VISTA (His-tagged). Nature of the test: BLI (Octet), 1:1 global fit, mouse VISTA captured.
Experimental: All measurements were performed at 25° C. with agitation at 1000 rpm. […] Sensograms were referenced for buffer effects and then fitted using the Octet QK384 user software (Pall ForteBio, USA).
For test [7], the target named is T3, recombinant human VISTA (His-tagged). Kind of test: BLI (Octet), 1:1 global fit, His-tagged human VISTA captured.
The target of test [8] is T4, recombinant mouse VISTA (His-tagged). Kind of test: BLI (Octet), 1:1 global fit, His-tagged mouse VISTA captured.
For test [9] the target is unchanged. Described as above. The source holds these as a separate data set.
In test [10] the target is T3, recombinant human VISTA (His-tagged). Kind of test: ELISA, plate coated with human VISTA; unit nM from the legend paragraph 697.
Test [11] concerns the target T4, recombinant mouse VISTA (His-tagged). Kind of test: ELISA, plate coated with mouse VISTA; unit nM from the legend paragraph 697.
The target in test [12] is T3, recombinant human VISTA (His-tagged). Kind of test: ELISA, plate coated with human VISTA; unit nM from the legend paragraph 698.
Test [13] has as its target T4, recombinant mouse VISTA (His-tagged). Nature of the test: ELISA, plate coated with mouse VISTA; unit nM from the legend paragraph 698.
Test [14] concerns the target T3, recombinant human VISTA (His-tagged). Kind of test: ELISA, plate coated with human VISTA; unit nM from the legend paragraph 699.
Test [15] has as its target T4, recombinant mouse VISTA (His-tagged). Nature of the test: ELISA, plate coated with mouse VISTA; unit nM from the legend paragraph 699.
The target of test [16] is T5, human PD-L1 (human, UniProt Q9NZQ7 19-239).
T5 construct: captured through a His tag in the BLI experiments; also called hPD-L1; B7H1/PDL-1
T5 sequence (Q9NZQ7 19-239 limits assumed): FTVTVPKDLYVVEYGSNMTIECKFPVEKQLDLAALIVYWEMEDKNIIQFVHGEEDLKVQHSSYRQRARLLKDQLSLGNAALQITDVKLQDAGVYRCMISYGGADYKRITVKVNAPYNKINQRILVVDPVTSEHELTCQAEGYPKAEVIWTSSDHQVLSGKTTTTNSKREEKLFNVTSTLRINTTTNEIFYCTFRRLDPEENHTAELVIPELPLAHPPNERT
Kind of test: BLI (Octet), His-tagged human PD-L1 on anti-Penta-HIS biosensor, antibody 500-15.6 nM.
Experimental: as §1

Test [17] deals with T3, recombinant human VISTA (His-tagged). Kind of test: ELISA, target protein coated, % Binding against log M of antibody.
Experimental: (§2) ELISAs were used to determine the binding specificity of the antibodies.
(§3) Briefly, 96-well plates (Nunc, Denmark) were coated with 1 μg/ml of target protein in phosphate-buffered saline (PBS) for 2 h at 37° C. After blocking for 1 h with 10% BSA in Tris buffer saline (TBS) at room temperature, the test antibody was serially diluted (12 point serial dilution) with the highest concentration being 30 μg/ml and added to the plate, in the. Post 1 h incubation at room temperature, plates were washed three times with TBS containing 0.05% Tween 20 (TBS-T) and were then incubated with a HRP-conjugated anti-mouse IgG antibody (Life Technologies, Inc., USA) for 1 h at room temperature. After washing, plates were developed with colorimetric detection substrate 3,3′,5,5′-tetramethylbenzidine (Turbo-TMB; Pierce, USA) for 15 min at room temperature.
Test [18] addresses T2, recombinant cynomolgus macaque VISTA …. The description is as above.
Experimental: as §2, §3
Test [19] has as its target T4, recombinant mouse VISTA (His-tagged). The test is described as above.
Experimental: as §2, §3
The target of test [20] is T5, human PD-L1. The description is as above.
Experimental: as §2, §3
The target in another test is human HER3 (human, UniProt P21860 20-643). The description is as above.

Experimental for human HER3: as §2, §3

B1: anti-VISTA clone V4-C24 IgG1 (antibody, V domains shown)
VH: QVQLQESGPGLVKPSDTLSLTCTVSGYSITSDYTWNWIRQTPGKGLEWIGHITYSGSVSYNPSLRSRVTISRDTSKNQFSLKLSSVTAADTATYSCARALYYPWYFDVWGTGTTVTVSS
VL: EIVLTQSPATLSLSPGERATLSCRASSSVGYIHWYQQKPGQAPRPLIYTTSYRATGIPARFSGSGSGTDNTLTISSLEPEDSAVYYCQQWSSYPPITFGGGTKLEVKR
On to B1, for which the EC50 in test [1] was determined as 0.201 nM; in test [2], 0.0385 nM; in test [3] it was 0.0268 nM; in test [4], 0.0304 nM; in test [10] it was 0.01 nM; in [11], 0.017 nM. Also, the EC50 amounted to 0.032 nM in test [12], 0.042 nM in test [13], 0.073 nM in [14] and 0.116 nM in test [15]. Also, the Kd was less than 0.001 nM in test [5]; 0.202 nM in [6]; less than 0.001 nM in test [7]; less than 0.001 nM in test [8]; less than 0.001 nM in test [9]. The koff is less than 1e-07 s⁻¹ in [5]; 7.6e-05 s⁻¹ in test [6]; less than 1e-07 s⁻¹ in test [7]; less than 1e-07 s⁻¹ in test [8]; less than 1e-07 s⁻¹ in test [9]. In addition, the kon in test [5] is 373000 M⁻¹ s⁻¹; in test [6] it was 378000 M⁻¹ s⁻¹; in test [7], 384000 M⁻¹ s⁻¹; in test [8], 401000 M⁻¹ s⁻¹; in [9] it was 462000 M⁻¹ s⁻¹. Further, in the test with human PD-L1 [16], the binding result is “no binding (tested: 500 nM)”.

B2: anti-VISTA clone V4-C26 IgG1 (antibody)
heavy: not shown
light: EIVLTQSPATLSLSPGERATLSCRASSSVGYIHWYQQKPGQAPRPIIYTTSNRATGIPARFSGSGSGTDNTLTISSLEPEDSAVYYCQQWSSYPPITFGGGTKLEVKRTVAAPSVFIFPPSDEQLKSGTASVVCLLNNFYPREAKVQWKVDNALQSGNSQESVTEQDSKDSTYSLSSTLTLSKADYEKHKVYACEVTHQGLSSPVTKSFNRGEC
Turning to B2, the EC50 in test [1] was 0.16 nM; in [2], 0.0356 nM; in test [3] it was 0.0241 nM; in [4], 0.0325 nM; in test [10], 0.0034 nM; in test [11], 0.0089 nM. Further, the EC50 in test [12] amounted to 0.038 nM; in test [13], 0.058 nM; in test [14], 0.064 nM; in test [15] it was 0.086 nM. Besides, the Kd was 0.241 nM in test [5]; 0.53 nM in [6]; less than 0.001 nM in test [7]; less than 0.001 nM in test [8]; 0.183 nM in test [9]. Also, the koff in [5] was 9.8e-05 s⁻¹; in [6], 0.0002 s⁻¹; in test [7], less than 1e-07 s⁻¹; in test [8], less than 1e-07 s⁻¹; in test [9] it was 7.6e-05 s⁻¹. In addition, the kon in [5] amounted to 407000 M⁻¹ s⁻¹; in test [6] it was 382000 M⁻¹ s⁻¹; in test [7] it was 404000 M⁻¹ s⁻¹; in test [8] it was 403000 M⁻¹ s⁻¹; in test [9], 413000 M⁻¹ s⁻¹. For the same molecule, the binding result with human PD-L1 [16] is recorded as “no binding (tested: 500 nM)”.

B3: anti-VISTA clone V4-C27 IgG1 (antibody, V domains shown)
VH: B1 VH
VL: B1 VL with T49A, S51Y, Y52N
B3: the EC50 in [1] was 0.196 nM; in test [2], 0.0324 nM; in test [3] it was 0.0295 nM; in test [4], 0.0374 nM; in [10], less than 0.0007 nM; in test [11] it was 0.0023 nM. Moreover, the EC50 is 0.037 nM in test [12], 0.047 nM in test [13], 0.047 nM in test [14] and 0.073 nM in [15]. For the same molecule, the Kd in test [5] was 0.119 nM; in test [6], 0.395 nM; in test [7] it was less than 0.001 nM; in [8] it was less than 0.001 nM; in [9] it was 0.137 nM. The koff in test [5] was 6.1e-05 s⁻¹; in test [6], 0.00016 s⁻¹; in test [7] it was less than 1e-07 s⁻¹; in test [8], less than 1e-07 s⁻¹; in test [9], 5.5e-05 s⁻¹. The kon came to 511000 M⁻¹ s⁻¹ in test [5]; 392000 M⁻¹ s⁻¹ in test [6]; 465000 M⁻¹ s⁻¹ in test [7]; 426000 M⁻¹ s⁻¹ in test [8]; 398000 M⁻¹ s⁻¹ in [9]. Also, the binding result with human PD-L1 [16] is recorded as “no binding (tested: 500 nM)”.

B4: anti-VISTA clone 4M2-C12 IgG1 (antibody)
heavy: not shown
light: DIVITQTPAILSTSPGEKVTMTCRASSSVGYIHWYQQKPGSSPKPWIYATSNLASGVPARFSGSGSGTSNSLTITRVEAEDAATYYCQQWSSYPPITFGGGTKLEVKRTVAAPSVFIFPPSDEQLKSGTASVVCLLNNFYPREAKVQWKVDNALQSGNSQESVTEQDSKDSTYSLSSTLTLSKADYEKHKVYACEVTHQGLSSPVTKSFNRGEC
notes: mouse variable regions on human IgG1/kappa constant regions; also called V4; V4pr
Regarding B4, the EC50 in test [1] amounted to 1.25 nM; in test [2], 0.0472 nM; in test [3] it was 0.0319 nM; in test [4] it was 0.387 nM; in [17], 0.256 nM; in test [18], 0.282 nM. Besides, the EC50 came out at 5.93 nM in [19], 0.036 nM in [10] and 0.43 nM in test [11]. Moreover, the figures for the binding result with human PD-L1 [20] and in the test with human HER3 were “no binding (tested: about 10^-6.7 M (log M axis))” and “no binding (tested: about 10^-6.2 M (log M axis))”, respectively.

The term EC50 denotes the concentration at which the effect is half-maximal. As a reminder, the Kd is the concentration at which binding is half-saturated. By koff is commonly meant the first-order rate constant of dissociation. As a reminder, the kon is a measure of how fast the partners come together.
